PMC11277218

What was measured:
[1] = target: HPV16 pseudovirions (HPV16-PsVs) (human papillomavirus type 16) (UniProt P03101)
[2] = target: HPV16 pseudovirions (HPV16-PsVs) (human papillomavirus type 16) (UniProt P03101); remark: listed apart in the source
[3] = target: HPV16 pseudovirions (HPV16-PsVs) (human papillomavirus type 16) (UniProt P03101); remark: listed apart in the source

UniProt P03101, sequence (P03101 whole entry, chain 1 of 2): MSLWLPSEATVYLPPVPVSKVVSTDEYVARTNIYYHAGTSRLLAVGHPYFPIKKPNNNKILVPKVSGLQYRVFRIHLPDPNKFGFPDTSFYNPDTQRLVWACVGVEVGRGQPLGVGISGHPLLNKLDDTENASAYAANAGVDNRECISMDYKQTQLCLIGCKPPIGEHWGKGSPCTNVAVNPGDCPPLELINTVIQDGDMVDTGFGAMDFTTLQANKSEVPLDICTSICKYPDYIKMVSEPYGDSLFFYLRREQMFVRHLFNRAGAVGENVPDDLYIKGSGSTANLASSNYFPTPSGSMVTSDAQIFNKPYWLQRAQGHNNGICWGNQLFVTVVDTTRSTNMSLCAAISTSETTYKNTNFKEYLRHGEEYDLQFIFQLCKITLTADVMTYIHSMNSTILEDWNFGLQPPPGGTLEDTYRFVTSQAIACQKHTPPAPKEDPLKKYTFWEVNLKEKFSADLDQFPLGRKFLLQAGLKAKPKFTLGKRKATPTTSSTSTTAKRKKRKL
UniProt P03101, sequence (P03107 whole entry, chain 2 of 2, further chain): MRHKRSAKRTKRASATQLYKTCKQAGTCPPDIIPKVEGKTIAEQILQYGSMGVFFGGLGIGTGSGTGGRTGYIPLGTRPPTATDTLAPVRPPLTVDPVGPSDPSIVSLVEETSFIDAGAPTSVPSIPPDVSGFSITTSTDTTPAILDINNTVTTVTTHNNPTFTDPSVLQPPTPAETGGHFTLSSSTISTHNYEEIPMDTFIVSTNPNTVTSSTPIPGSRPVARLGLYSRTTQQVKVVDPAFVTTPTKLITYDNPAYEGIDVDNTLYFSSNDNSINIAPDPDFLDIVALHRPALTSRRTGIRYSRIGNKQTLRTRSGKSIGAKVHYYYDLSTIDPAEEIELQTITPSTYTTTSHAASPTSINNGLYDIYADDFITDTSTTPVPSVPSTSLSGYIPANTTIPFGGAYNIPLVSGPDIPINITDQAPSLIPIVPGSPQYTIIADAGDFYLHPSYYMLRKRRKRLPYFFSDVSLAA

Substance: native human surfactant protein A (SP-A) (from UniProt Q8IWL2 21-248) (natural protein)
- uptake of SP-A-preincubated AF488-PsVs into RAW264.7 macrophages, MFI by flow cytometry, fold of the BSA control [1]: 1.75 fold
- uptake of SP-A-preincubated AF488-PsVs into RAW264.7 macrophages, positive cells by flow cytometry, fold of the BSA control [1]: 2 fold
- uptake of SP-A-preincubated AF488-PsVs into THP-1-derived immature dendritic cells (DC0), positive cells by flow cytometry, fold of the BSA control [1]: 2 fold
- uptake of SP-A-preincubated AF488-PsVs into THP-1 monocytes, MFI by flow cytometry, fold of the BSA control [1]: 1.3 fold
- uptake of SP-A-preincubated AF488-PsVs into HaCaT keratinocytes, positive cells by flow cytometry, against the BSA control (fold decrease) [2]: 2
- infection of HaCaT monocultures by SP-A-preincubated PsVs, Gaussia luciferase at 48 h, against the BSA control [3]: 40 % reduction
